Target: Human insulin receptor subtype B (human), P06213
Assay: cell-based or functional assay

Human insulin receptor subtype B activity (EC50): 0.422 µM
B1: Fusion protein 1 (insulin analog 1 + L2 + IgG2 Fc1) (Fc fusion)
chain: FVNQHLCGEHLVEALYLVCGERGFHYGGGGGGSGGGGGIVEQCCESICSLEQLENYCGGGGGQGGGGQGGGGQGGGGGECPPCPAPPVAGPSVFLFPPKPKDTLMISRTPEVTCVVVDVSHEDPEVQFNWYVDGVEVHNAKTKPREEQFNSTFRVVSVLTVVHQDWLNGKEYKCKVSNKGLPAPIEKTISKTKGQPREPQVYTLPPSREEMTKNQVSLTCLVKGFYPSDIAVEWESNGQPENNYKTTPPMLDSDGSFFLYSKLTVDKSRWQQGNVFSCSVMHEALHNHYTQKSLSLSPG

Source: patent publication EP4782465A1
